Our source for the MFI values is patent US20250257128A1.

For assay [1], the target named is human CD47 (human) (UniProt Q08722). Description: flow cytometry on human red blood cells, antibody at 15 µg/mL (negative control).
For assay [2] the target is unchanged. Kind of assay: flow cytometry on human red blood cells, antibody at 150 µg/mL (negative control). A general note: A flow cytometer gives signals particle by particle.

human CD47 (human), sequence (Q08722 19-323): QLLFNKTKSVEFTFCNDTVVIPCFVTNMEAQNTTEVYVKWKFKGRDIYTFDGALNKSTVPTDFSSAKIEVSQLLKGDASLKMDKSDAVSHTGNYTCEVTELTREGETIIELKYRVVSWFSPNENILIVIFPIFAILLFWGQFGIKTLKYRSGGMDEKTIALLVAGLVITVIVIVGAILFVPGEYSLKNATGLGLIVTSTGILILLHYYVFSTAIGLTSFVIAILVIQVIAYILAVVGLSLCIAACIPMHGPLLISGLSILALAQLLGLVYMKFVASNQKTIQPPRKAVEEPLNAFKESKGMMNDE

Consider “Human IgG1 isotype negative control (antibody)”, for which the values for the MFI with human CD47 (human) [1] and with human CD47 (human) [2] were 303 MFI and 901 MFI, respectively.
